The record followed here is the supplement of paper PMC7877785.

± gives the uncertainty stated by the source.

The data set in a line: self-splicing fitness, log relative to wild type (ln ratio); higher = more splicing; Tetrahymena group I intron in knt gene, E. coli kanamycin selection, DiMSum; sequences stand for … in CUCUCU…GGAGGGAAAAGUUAUCAGGCAUGCACCUGGUAGCUAGUCUUUAAACCAAUAGAUUGCAUCGGUUUAAAAGGCAAGACCGUCAAAUUGCGGGAAAGGGGUCAACAGCCGUUCAGUACCAAGUCUCAGGGGAAACUUUGAGAUGGCCUUGCAAAGGGUAUGGUAAUAAGCUGACGGACAUGGUCCUAACCACGCAGCCAAGUCCUAAGUCAACAGAUCUUCUGUUGAUAUGGAUGCAGUUCACAGACUAAAUGUCGGUCGGGGAAGAUGUAUUCUUCUCAUAAGAUAUAGUCGGACCUCUCCUUAAUGGGAGCUAGCGGAUGAAGUGAUGCAACACUGGAGCCGCUGGGAACUAAUUUGUAUGCGAAAGUAUAUUGAUUAGUUUUGGAGUACUCGUGGUCG
Summed up: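 Fitness was computed with DiMSum as the error-weighted combination of replicate fold changes, kanamycin versus none, each normalised to wild type. The library randomised all eight intron nucleotides of the P1ex region, with the intron placed in the knt kanamycin-resistance gene on pET-22b(+) in E. coli BL21(DE3). Six replicate transformations were grown overnight at 37°C or 30°C on LB agar with or without 25 μg/mL kanamycin, plus 100 μg/mL carbenicillin, 50 μM IPTG and 0.2% rhamnose. Pooled colonies were amplicon-sequenced on an Illumina HiSeq 2500.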

Consider AUCAAGCAAUAUUACGAUCA, for which the “self-splicing fitness (ln)” value (30 °C) is -1.14 ± 0.1 and the “self-splicing fitness (ln)” value (37 °C) is -0.582 ± 0.11.
For AUUGAGCAAUAUUACGCUAG, the “self-splicing fitness (ln)” value (37 °C) was -2.2 ± 0.22.
For the sequence CGCAAGCAAUAUUACGCGUU, the “self-splicing fitness (ln)” value is, setting by setting: (30 °C) -3.9 ± 0.15; (37 °C) -2.86 ± 0.15.
In the case of UCAGAGCAAUAUUACGUGGC, the “self-splicing fitness (ln)” value is, setting by setting: (30 °C) -3.85 ± 0.25; (37 °C) -2.32 ± 0.26.
The corresponding values for GCAGAGCAAUAUUACGAUCC are -2.13 ± 0.3 and -0.288 ± 0.46.
The corresponding values for CAUUAGCAAUAUUACGCUAG are -2.75 ± 0.28 and -0.852 ± 0.2.
The corresponding values for UGCGAGCAAUAUUACGAAAC are -2.99 ± 0.17 and -3.8 ± 0.34.
As for AAGCAGCAAUAUUACGCAGC, the “self-splicing fitness (ln)” value was -2.55 ± 0.16 (30 °C) and -3.41 ± 0.39 (37 °C).
The corresponding values for AUGCAGCAAUAUUACGACUC are -0.57 ± 0.11 and 0.501 ± 0.11.
For GCACAGCAAUAUUACGCUCG, in that order: -0.537 ± 0.066 and 0.118 ± 0.095.
As for UGGAAGCAAUAUUACGAUAA, the “self-splicing fitness (ln)” value is -1.6 ± 0.12 (30 °C) and -0.36 ± 0.15 (37 °C).
With GGGGAGCAAUAUUACGGUGG, the “self-splicing fitness (ln)” value by setting is: (30 °C) -3.04 ± 0.25; (37 °C) -2.67 ± 0.24.
For UCAAAGCAAUAUUACGCUUU, in that order: -3.89 ± 0.46 and -1.72 ± 0.27.
On to UACCAGCAAUAUUACGAAGU, for which the “self-splicing fitness (ln)” value (30 °C) was -2.48 ± 0.22 and the “self-splicing fitness (ln)” value (37 °C) is -2.74 ± 0.28.
For GGCGAGCAAUAUUACGUUCU, in that order: -1.02 ± 0.051 and -0.335 ± 0.07.
The corresponding values for UGGAAGCAAUAUUACGUUCG are 0.201 ± 0.087 and -0.347 ± 0.096.
For GGCCAGCAAUAUUACGAGUG, in that order: -2.55 ± 0.11 and -1.14 ± 0.093.
In the case of UGCCAGCAAUAUUACGCACA, the “self-splicing fitness (ln)” value (30 °C) is -0.53 ± 0.093 and the “self-splicing fitness (ln)” value (37 °C) is -0.708 ± 0.15.
For GCCGAGCAAUAUUACGAUCG, for the setting “30 °C”, the “self-splicing fitness (ln)” value is -2.36 ± 0.26.
With CCUAAGCAAUAUUACGCAUG, the “self-splicing fitness (ln)” value reads like this: (30 °C) -3.6 ± 0.33; (37 °C) -1.51 ± 0.23.
As for CUUAAGCAAUAUUACGAACC, the “self-splicing fitness (ln)” value (37 °C) was -0.593 ± 0.37.
For the sequence ACUGAGCAAUAUUACGAAGU, the “self-splicing fitness (ln)” value is -3.93 ± 0.3 (30 °C) and -3.03 ± 0.31 (37 °C).
In the case of AUUAAGCAAUAUUACGUCGA, the “self-splicing fitness (ln)” value is, setting by setting: (30 °C) -1 ± 0.1; (37 °C) -0.855 ± 0.13.
For CGUCAGCAAUAUUACGAUAA, in that order: -1.1 ± 0.14 and 0.157 ± 0.12.
On to GGUGAGCAAUAUUACGCUGU, for which the “self-splicing fitness (ln)” value runs as follows: (30 °C) -3.68 ± 0.34; (37 °C) -1.64 ± 0.27.
For UAUCAGCAAUAUUACGUCAA, in that order: -0.73 ± 0.092 and -0.445 ± 0.11.
On to GUUAAGCAAUAUUACGCAAG, for which the “self-splicing fitness (ln)” value runs as follows: (30 °C) -1.84 ± 0.18; (37 °C) -1.71 ± 0.23.
The corresponding values for GCUUAGCAAUAUUACGAGCG are -2.44 ± 0.26 and -1.1 ± 0.16.
For UCUAAGCAAUAUUACGCGGA, in that order: -2.69 ± 0.3 and -2.47 ± 0.24.
As for AGGCAGCAAUAUUACGACUA, the “self-splicing fitness (ln)” value is 0.127 ± 0.11 (30 °C) and -0.125 ± 0.12 (37 °C).
For GACGAGCAAUAUUACGCACU, in that order: -1.32 ± 0.15 and -0.506 ± 0.16.
The corresponding values for ACCUAGCAAUAUUACGGACU are -0.424 ± 0.059 and 0.508 ± 0.069.
The corresponding values for CCACAGCAAUAUUACGGAAA are -3.47 ± 0.23 and -3.54 ± 0.29.
In the case of CCCAAGCAAUAUUACGCGAC, the “self-splicing fitness (ln)” value is -3.2 ± 0.21 (30 °C) and -2.29 ± 0.19 (37 °C).
For GUGGAGCAAUAUUACGCGCA, in that order: -1.48 ± 0.43 and -1.47 ± 0.35.
For GGACAGCAAUAUUACGUAAG, in that order: -0.165 ± 0.061 and 0.19 ± 0.079.
On to GCCCAGCAAUAUUACGCCAC, for which the “self-splicing fitness (ln)” value by setting is: (30 °C) -4.89 ± 0.38; (37 °C) -2.44 ± 0.18.
For GAUCAGCAAUAUUACGGUCU, in that order: -3.56 ± 0.21 and -1.9 ± 0.2.
